Data reported in the supplement of paper PMC9112550, “Optimization of the antimicrobial peptide Bac7 by deep mutational scanning” (BMC Biology, 2022).

Test system: Escherichia coli TOP10
Test: shrunken log2 fold change of peptide-encoding DNA abundance (4.5 h post-induction vs induction); higher = less antimicrobial activity (less host growth inhibition)
Conditions: time post-induction: 4.5 h; library: site-saturation at positions 5, 18, 19, 20
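Note: peptides expressed intracellularly from a pBAD plasmid library in pooled LB shake-flask culture, induced with 0.3% L-arabinose, DNA abundance read by NGS, three biological replicates, DESeq2 with apeglm shrinkage.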

Sequence | shrunken log2 fold change
RRIRERPPRLPRPRPRPRNSPRP | -0.639
RRIRHRPPRLPRPRPRPNFVPRP | -0.0788
RRIRIRPPRLPRPRPRPWHTPRP | -0.113
RRIRVRPPRLPRPRPRPCHLPRP | -0.00192
RRIRARPPRLPRPRPRPYDEPRP | -0.0107
RRIRCRPPRLPRPRPRPWIMPRP | -0.275
RRIRTRPPRLPRPRPRPPAPPRP | 0.592
RRIRSRPPRLPRPRPRPGAFPRP | 0.0905
RRIRRRPPRLPRPRPRPWKNPRP | 0.206
RRIRVRPPRLPRPRPRPFEDPRP | -0.151
RRIRTRPPRLPRPRPRPGQWPRP | 0.0938
RRIRKRPPRLPRPRPRPLTCPRP | -0.000599
RRIRSRPPRLPRPRPRPNTSPRP | -0.242
RRIRVRPPRLPRPRPRPPVYPRP | -0.329
RRIRSRPPRLPRPRPRPFWSPRP | -0.183
RRIRVRPPRLPRPRPRPDLMPRP | -0.00839
RRIRVRPPRLPRPRPRPEMGPRP | 0.104
RRIRTRPPRLPRPRPRPRLNPRP | -0.251
RRIRYRPPRLPRPRPRPPIWPRP | -0.0337
RRIRQRPPRLPRPRPRPAWRPRP | 0.497
RRIRNRPPRLPRPRPRPHMVPRP | -0.13
RRIRMRPPRLPRPRPRPSCFPRP | -0.145
RRIRVRPPRLPRPRPRPYANPRP | 0.0231
RRIRSRPPRLPRPRPRPFGCPRP | 0.029
RRIRDRPPRLPRPRPRPYEAPRP | -0.108

Sequence | shrunken log2 fold change
RRIRNRPPRLPRPRPRPIMAPRP | -0.187
RRIRDRPPRLPRPRPRPADRPRP | 0.0125
RRIRPRPPRLPRPRPRPCAIPRP | -1.01
RRIRPRPPRLPRPRPRPMVAPRP | 0.208
RRIRHRPPRLPRPRPRPMTSPRP | -0.491
RRIRPRPPRLPRPRPRPCHWPRP | 0.0406
RRIRHRPPRLPRPRPRPHRMPRP | -0.46
RRIRNRPPRLPRPRPRPLDPPRP | -0.117
RRIRVRPPRLPRPRPRPTGKPRP | -0.116
RRIRLRPPRLPRPRPRPLWYPRP | -0.191
RRIRQRPPRLPRPRPRPKSTPRP | -0.228
RRIRCRPPRLPRPRPRPDCYPRP | -0.0924
RRIRCRPPRLPRPRPRPAVQPRP | -0.0829
RRIRERPPRLPRPRPRPWSSPRP | 9.28e-05
RRIRPRPPRLPRPRPRPILCPRP | 0.179
RRIRHRPPRLPRPRPRPAQHPRP | -0.14
RRIRCRPPRLPRPRPRPKEQPRP | 0.0429
RRIRLRPPRLPRPRPRPDYRPRP | -0.0122
RRIRGRPPRLPRPRPRPQRLPRP | 0.329
RRIRRRPPRLPRPRPRPWYVPRP | 0.0457
RRIRPRPPRLPRPRPRPYTHPRP | -1.35
RRIRARPPRLPRPRPRPCQYPRP | -0.411
RRIRSRPPRLPRPRPRPAGFPRP | 0.262
RRIRGRPPRLPRPRPRPMFCPRP | 0.178
RRIRPRPPRLPRPRPRPGPGPRP | 0.621

Sequence | shrunken log2 fold change
RRIRPRPPRLPRPRPRPRLKPRP | 0.344
RRIRSRPPRLPRPRPRPHQMPRP | -0.207
RRIRRRPPRLPRPRPRPVFEPRP | 0.192
RRIRQRPPRLPRPRPRPPLEPRP | 0.949
RRIRSRPPRLPRPRPRPQHYPRP | -0.804
RRIRPRPPRLPRPRPRPHVAPRP | 0.218
RRIRTRPPRLPRPRPRPHHIPRP | -0.278
RRIRCRPPRLPRPRPRPMQEPRP | -0.0194
RRIRFRPPRLPRPRPRPKHFPRP | -0.0499
RRIRWRPPRLPRPRPRPTEWPRP | 0.327
RRIRHRPPRLPRPRPRPYACPRP | -0.225
RRIRCRPPRLPRPRPRPAKRPRP | 0.0702
RRIRTRPPRLPRPRPRPVSYPRP | -0.242
RRIRARPPRLPRPRPRPWNFPRP | -0.123
RRIRLRPPRLPRPRPRPLKGPRP | -0.0279
RRIRSRPPRLPRPRPRPADWPRP | 0.405
RRIRYRPPRLPRPRPRPDLLPRP | -0.0601
RRIRPRPPRLPRPRPRPGARPRP | 1.19
RRIRPRPPRLPRPRPRPPDYPRP | -0.107
RRIRWRPPRLPRPRPRPFYHPRP | -0.0855
RRIRQRPPRLPRPRPRPKTVPRP | -0.093
RRIRERPPRLPRPRPRPQLCPRP | 0.0651
RRIRCRPPRLPRPRPRPSIAPRP | -0.3
RRIRGRPPRLPRPRPRPQGAPRP | 0.807
RRIRCRPPRLPRPRPRPMCLPRP | -0.201
